In paper PMC12124358:

Assays:
[1] = target: H3 (3–19)_([change]-[change])-Ub_([change]) (UniProt P68431); assay: crystal structure
[2] = target: H3 (3–19)_([change]-[change]) (UniProt P68431); assay: crystal structure
[3] = target: unmodified histone H3 N-terminal tail (residues 1 to 20) (UniProt P68431)

Sequence of Clr4 lysine methyltransferase (KMT) domain (residues 192 to 490) (O60016 192-490): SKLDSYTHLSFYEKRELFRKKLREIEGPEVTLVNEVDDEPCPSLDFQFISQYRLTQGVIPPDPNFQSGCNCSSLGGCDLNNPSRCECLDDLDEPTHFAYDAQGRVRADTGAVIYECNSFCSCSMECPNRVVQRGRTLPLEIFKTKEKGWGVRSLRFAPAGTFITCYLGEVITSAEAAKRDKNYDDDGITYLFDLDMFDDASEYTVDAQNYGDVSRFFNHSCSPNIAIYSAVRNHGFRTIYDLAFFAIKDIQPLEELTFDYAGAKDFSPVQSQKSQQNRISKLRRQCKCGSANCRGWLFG
Sequence of full-length Clr4 (residues 1 to 490) (O60016 whole entry, the tested form may be a part): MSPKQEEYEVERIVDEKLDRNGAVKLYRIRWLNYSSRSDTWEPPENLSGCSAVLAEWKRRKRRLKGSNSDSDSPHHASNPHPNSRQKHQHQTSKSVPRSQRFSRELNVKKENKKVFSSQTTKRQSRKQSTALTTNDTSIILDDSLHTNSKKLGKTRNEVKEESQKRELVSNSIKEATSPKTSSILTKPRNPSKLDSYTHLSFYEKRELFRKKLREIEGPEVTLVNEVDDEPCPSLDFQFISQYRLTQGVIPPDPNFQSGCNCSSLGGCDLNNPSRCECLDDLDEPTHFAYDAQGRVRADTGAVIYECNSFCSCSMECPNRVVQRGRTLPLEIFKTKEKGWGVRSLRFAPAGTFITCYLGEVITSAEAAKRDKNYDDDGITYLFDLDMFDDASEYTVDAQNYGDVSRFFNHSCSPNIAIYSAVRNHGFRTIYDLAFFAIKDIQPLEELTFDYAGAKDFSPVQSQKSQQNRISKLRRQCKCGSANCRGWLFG

With “Clr4 lysine methyltransferase (KMT) domain (residues 192 to 490) (from UniProt O60016 192-490) (domain or fragment)” the stoichiometry N [1] was 1 and the stoichiometry N [2] was 1.
“full-length Clr4 (residues 1 to 490) (from UniProt O60016 1-490) (enzyme)” was tested, and the Km, Michaelis-Menten kinetics of H3K9 methylation (MTase-Glo, SAH production) [3] was 75.8 µM.
With “full-length Clr4 K455A/K472A (automethylation-mimicking) (from UniProt O60016 1-490) (enzyme)” the Km, Michaelis-Menten kinetics of H3K9 methylation (MTase-Glo, SAH production) [3] was 26.5 µM.
